Reference: patent US20090221680

Molecular target: thrombin (alpha-thrombin) (Homo sapiens) (UniProt P00734+P00734)
Assay: filter

Sequence: ACTGCCTAGGTTGGGTAGGGTGGTGGCAGT [ARC2673]
- Kd (deoxyinosine at 4 [deoxyinosine at 4 (parent base G)]): 0.207 nM

Sequence: ACTGCCTAGGTTGGGTAGGGTGGTGGCAGT [ARC2674]
- Kd (deoxyinosine at 9 [9]): 0.452 nM

Sequence: ACTGCCTAGGTTGGGTAGGGTGGTGGCAGT [ARC2675]
- Kd (deoxyinosine at 10 [10]): 2.03 nM

Sequence: ACTGCCTAGGTTGGGTAGGGTGGTGGCAGT [ARC2676]
- Kd (deoxyinosine at 13 [13]): 0.698 nM

Sequence: ACTGCCTAGGTTGGGTAGGGTGGTGGCAGT [ARC2677]
- Kd (deoxyinosine at 14 [14]): 0.199 nM

Sequence: ACTGCCTAGGTTGGGTAGGGTGGTGGCAGT [ARC2678]
- Kd (deoxyinosine at 15 [15]): 1.43 nM

Sequence: ACTGCCTAGGTTGGGTAGGGTGGTGGCAGT [ARC2679]
- Kd (deoxyinosine at 18 [18]): 0.355 nM

Sequence: ACTGCCTAGGTTGGGTAGGGTGGTGGCAGT [ARC2680]
- Kd (deoxyinosine at 19 [19]): 0.24 nM

Sequence: ACTGCCTAGGTTGGGTAGGGTGGTGGCAGT [ARC2681]
- Kd (deoxyinosine at 20 [20]): 0.334 nM

Sequence: ACTGCCTAGGTTGGGTAGGGTGGTGGCAGT [ARC2682]
- Kd (deoxyinosine at 22 [22]): 1.3 nM

Sequence: ACTGCCTAGGTTGGGTAGGGTGGTGGCAGT [ARC2683]
- Kd (deoxyinosine at 23 [23]): 0.151 nM

Sequence: ACTGCCTAGGTTGGGTAGGGTGGTGGCAGT [ARC2684]
- Kd (deoxyinosine at 25 [25]): 0.188 nM

Sequence: ACTGCCTAGGTTGGGTAGGGTGGTGGCAGT [ARC2685]
- Kd (deoxyinosine at 26 [26]): 0.226 nM

Sequence: ACTGCCTAGGTTGGGTAGGGTGGTGGCAGT [ARC2686]
- Kd (deoxyinosine at 29 [29]): 0.189 nM

Sequence: ACTGCCTAGGTTGGGTAGGGTGGTGGCAGT [ARC2687]
- Kd (2'-OMe inosine at 4, rest DNA [4]): 0.22 nM

Sequence: ACTGCCTAGGTTGGGTAGGGTGGTGGCAGT [ARC2691]
- Kd (2'-OMe inosine at 14, rest DNA [14]): 2.28 nM

Sequence: ACTGCCTAGGTTGGGTAGGGTGGTGGCAGT [ARC2692]
- Kd (2'-OMe inosine at 15, rest DNA [15]): 1.84 nM

Sequence: ACTGCCTAGGTTGGGTAGGGTGGTGGCAGT [ARC2695]
- Kd (2'-OMe inosine at 20, rest DNA [20]): 2.08 nM

Sequence: ACTGCCTAGGTTGGGTAGGGTGGTGGCAGT [ARC2697]
- Kd (2'-OMe inosine at 23, rest DNA [23]): 1.56 nM

Sequence: ACTGCCTAGGTTGGGTAGGGTGGTGGCAGT [ARC2698]
- Kd (2'-OMe inosine at 25, rest DNA [25 = 2'-OMe inosine (written as parent base G), rest DNA]): 0.165 nM

Sequence: ACTGCCTAGGTTGGGTAGGGTGGTGGCAGT [ARC2699]
- Kd (2'-OMe inosine at 26, rest DNA [26 = 2'-OMe inosine (written as parent base G), rest DNA]): 0.128 nM

Sequence: ACTGCCTAGGTTGGGTAGGGTGGTGGCAGT [ARC2700]
- Kd (2'-OMe inosine at 29, rest DNA [29 = 2'-OMe inosine (written as parent base G), rest DNA]): 0.046 nM
